We go through 1 molecule from patent US10494417B2, “Peptide inhibitors of BCR-ABL oligomerization” (University of Utah Research Foundation, priority 2014, dated 2019).

Test [1] concerns Ba/F3 cells expressing native BCR-ABL1 (Ba/F3-p210). Nature of the test: Annexin V/7-AAD apoptosis assay in transfected Ba/F3-p210 cells. The class given is cell-based, mouse. The protocol: Assays were run in triplicate (n=3).
(§1) For analysis of apoptosis and cell death, cells were pelleted and resuspended in Annexin V-binding buffer (BD Biosciences), stained with anti-Annexin V-APC (BD Biosciences or Life Technologies) and 7-AAD (BD Biosciences or Life Technologies) and analyzed on a BD FACSCanto flow cytometer. In addition to the APC and 7-AAD channels, GFP- and mCherry-positive cells were also recorded.
(§2) For analysis of apoptosis and necrotic cell death, cells were pelleted and resuspended in Annexin V-binding buffer (BD Biosciences), stained with anti-Annexin V-APC and 7-AAD (BD Biosciences or Life Technologies) and analyzed on a BD FACSCanto flow cytometer. In addition to the APC and 7-AAD channels, GFP- and mCherry-positive cells were also recorded.

Test [2] deals with Ba/F3 cells expressing BCR-ABL1E255V. Nature of the test: Annexin V/7-AAD apoptosis assay in Ba/F3 BCR-ABL1 E255V cells. The class given is cell-based, mouse. As to conditions: 72 h, CCmut3 vs EV. The procedure:
as §1, §2

Test [3] concerns Ba/F3 cells expressing native BCR-ABL1. Nature of the test: Proliferation of transfected Ba/F3 cells with native p210 BCR-ABL1 (MTS assay). The class given is cell-based, mouse. Particulars: CCmut3 vs EV; for reduction of proliferation: 96 h. The protocol: Stable recombinant Ba/F3 cells transduced with wild type p210 BCR-ABL1 (Daley, G. Q., et al. (1991) Proc. Natl. Acad. Sci. U.S.A. 88, 11335-11338), the kinase domain mutants p210^T315I p210^[…], or the compound mutant p210^E255V/T315I were as previously described (La Rosee, P., et al. (2002) Cancer Res. 62, 7149-7153; O'Hare, T., et al. (2004) Blood 104, 2532-2539). These cells were cultured in RPMI with 10% FBS, 1% penicillin, streptomycin, glutamine, and 0.1% gentamycin (RPMI1640). Additionally 0.1% MycoZap™ (Lonza Bio, Basel, Switzerland) was added to prevent mycoplasma contamination. The non-transduced parental Ba/F3 cell line was grown in RPMI1640 supplemented with 20% WEHI-3B conditioned medium as a source of murine IL-3 (Dexter, T. M., et al. (1980) J. Exp. Med. 152, 1036-1047). Ba/F3 cells were transfected with plasmid DNA using the Amaxa nucleofection system (Lonza Bio), following the manufacturer's instructions. Cells were sorted on a BD FACSAria cytometer (BD Biosciences, San Jose, Calif.) for double-positive cells expressing mCherry and GFP then returned to RPMI1640 for subsequent experiments.
Cell proliferation was assessed using the CellTiter 96® AQueous One Solution Cell Proliferation Assay (MTS assay, Promega) according to manufacturer instructions. Briefly, 5,000 viable cells were added to a single well in 96-well plate in 100 μL RPMI1640. Three independent samples were seeded in duplicate for each time point. […] In some experiments, cell proliferation was assessed using a Neubauer chamber and trypan blue dye exclusion.
Stable Ba/F3 cells transduced with native (p210) BCR-ABL1, the kinase domain mutants BCR-ABL1T315I, BCR-ABL1E255V, or the compound mutant BCR-ABL1E255V/T315I were cultured. […]
Cell proliferation was assessed using a […] viability assay (MTS assay) utilizing CellTiter 96® AQueous One Solution Cell Proliferation Assay (Promega) according to manufacturer instructions. […] Cell growth was assessed by MTS assay at 72 and 96 h. […] In patient sample experiments, cell proliferation was assessed by trypan blue exclusion.
(In general: Tetrazolium dyes change colour on reduction, which living cells bring about.)

Test [4] concerns the target T1, isolated CC domain from Bcr-Abl (Homo sapiens, UniProt P11274, C38A/E48R/K39E/L45D/Q60E/S41R).
T1 construct: using the isolated CC domain from Bcr-Abl instead of the full-length protein; expressed in transfected cells
T1 sequence (P11274 1-72 C38A/K39E/S41R/L45D/E48R/Q60E): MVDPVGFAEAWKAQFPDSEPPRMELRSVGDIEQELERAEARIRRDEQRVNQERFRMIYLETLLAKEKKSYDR
Nature of the test: Mammalian two-hybrid assay of coiled-coil dimerization. The class given is cell-based. Particulars: CC^mut3 with CC^mut3. The protocol: (§3) As mentioned above, the design process of CC^mut3 involved favoring hetero-dimerization with Bcr-Abl while avoiding homo-dimerization with another CC^mut3 molecule. Thus, a mammalian two-hybrid assay was performed to measure the likelihood of each scenario, using the isolated CC domain from Bcr-Abl instead of the full-length protein (for ease of use).

The target in test [5] is T2, isolated CC domain from Bcr-Abl (Homo sapiens, UniProt P11274).
T2 construct: using the isolated CC domain from Bcr-Abl instead of the full-length protein; expressed in transfected cells
T2 sequence (P11274 1-72): T1 sequence (P11274 1-72 C38A/K39E/S41R/L45D/E48R/Q60E) with A38C, E39K, R41S, D45L, R48E, E60Q
The test is described as above. Type of test: cell-based. As to conditions: isolated CC domain from Bcr-Abl. The protocol:
as §3

Substitutions are numbered along the chain they refer to. In names and notes the source's numbering stands. Several values for one entry are separate records, joined by “and”; a condition that tells them apart may be missing. Equal values may be shown once. Entries after “also recorded” stand apart in the source; their conditions may differ.

B1: CCmut3: modified Bcr-Abl coiled-coil domain (residues 1-72) with mutations C38A, K39E, S41R, L45D, E48R, Q60E (protein)
chain: T1 sequence (P11274 1-72 C38A/K39E/S41R/L45D/E48R/Q60E)
Consider B1, for which, in test [1] (72 h, CCmut3 vs EV), the “apoptosis, in words” value is “increases apoptosis” and the “increase of apoptotic cells” value is reported as “approximately 3 fold”. Moreover, in test [1] (CC^mut3 versus EV control (FIG. 14B)), the “increase in apoptotic population” value was “more than 30%”. Moreover, in test [2], the “apoptosis, in words” value is “increase of apoptosis”; the increase in apoptosis is 6-8 fold and > 5 fold. Also, in test [2] (listed as CC^mut3), the “apoptosis, in words” value is “significant shift toward the apoptotic fraction” and the increase in apoptosis is 6-8 fold. For the same molecule, in test [3], the reduction of proliferation is reported as > 2 fold and the “proliferation, in words” value is recorded as “significantly reduced proliferation at 96 h”. Besides, in test [3] (listed as CC^mut3), the reduction of proliferation result was “more than 2 fold”. Further, the homo-oligomerization entry in test [4] is reported as “strongly disfavoring homo-oligomerization”. Besides, the “hetero-dimerization with BCR-ABL” value in test [5] is “favors hetero-dimerization; also recorded: strongly favors hetero-dimerization”.
